The target of assay [1] is Spa47 (Shigella T3SS ATPase), wild-type (S. flexneri) (UniProt P0A1C1).
Assay [2] has the same target. The source holds these as a separate data set.

This note sets out measurements from article PMC6980540.

In the case of “Spa47 (Shigella T3SS ATPase), wild-type (from UniProt P0A1C1 1-430) (enzyme)”, the ATP hydrolysis rate (normalized for enzyme concentration) of monomeric Spa47 as a function of enzyme concentration in assay [1] is 3 fold. In assay [2], the ATPase activity of the Spa47 oligomer formed in vitro by concentrating the monomer to ~200 μM ((μmol ADP/min) /mg Spa47) was determined as 1.5 and the ATPase activity of the isolated monomeric Spa47 before its conversion to oligomer ((μmol ADP/min) /mg Spa47) was found to be 0.11.
